Assay results from US20080131908A1 (Genentech, published 2008).
Values belong to the molecule of their own block, whether it stands above or below them.

Key:
[1] = molecular target: human Notch3 (full-length) (human) (UniProt Q9UM47); assay: FACS on Sup-T1 cells (native Notch3)
[2] = molecular target: human Notch3 (full-length) (human) (UniProt Q9UM47); assay: FACS on 293T cells transiently transfected with Notch3/Hygromycin
[3] = molecular target: T1, Notch3-LD/Fc fusion protein (human, UniProt Q9UM47 1378-1640); assay: ELISA, hybridoma supernatant on coated Notch3-LD/Fc (0.1 ug/ml); control beside 256A-13
T1 construct: A signal peptide was linked to the N-terminus (not identified, left out); not described; also called Notch3/Fc fusion protein
T1 sequence: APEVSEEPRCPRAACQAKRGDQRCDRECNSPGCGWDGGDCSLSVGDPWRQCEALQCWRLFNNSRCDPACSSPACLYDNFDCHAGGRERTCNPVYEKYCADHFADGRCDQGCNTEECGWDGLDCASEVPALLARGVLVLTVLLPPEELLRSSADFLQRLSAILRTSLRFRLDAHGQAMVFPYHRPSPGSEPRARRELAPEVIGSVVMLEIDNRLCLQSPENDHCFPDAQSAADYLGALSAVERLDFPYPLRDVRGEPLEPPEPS

[4] = molecular target: Notch3-EGF/Fc fusion protein (human) (UniProt Q9UM47); assay: ELISA, hybridoma supernatant on coated Notch3-EGF/Fc (0.1 ug/ml); control beside 255A-71
Chain of Notch3-EGF/Fc fusion protein (human) (Q9UM47 43-1377): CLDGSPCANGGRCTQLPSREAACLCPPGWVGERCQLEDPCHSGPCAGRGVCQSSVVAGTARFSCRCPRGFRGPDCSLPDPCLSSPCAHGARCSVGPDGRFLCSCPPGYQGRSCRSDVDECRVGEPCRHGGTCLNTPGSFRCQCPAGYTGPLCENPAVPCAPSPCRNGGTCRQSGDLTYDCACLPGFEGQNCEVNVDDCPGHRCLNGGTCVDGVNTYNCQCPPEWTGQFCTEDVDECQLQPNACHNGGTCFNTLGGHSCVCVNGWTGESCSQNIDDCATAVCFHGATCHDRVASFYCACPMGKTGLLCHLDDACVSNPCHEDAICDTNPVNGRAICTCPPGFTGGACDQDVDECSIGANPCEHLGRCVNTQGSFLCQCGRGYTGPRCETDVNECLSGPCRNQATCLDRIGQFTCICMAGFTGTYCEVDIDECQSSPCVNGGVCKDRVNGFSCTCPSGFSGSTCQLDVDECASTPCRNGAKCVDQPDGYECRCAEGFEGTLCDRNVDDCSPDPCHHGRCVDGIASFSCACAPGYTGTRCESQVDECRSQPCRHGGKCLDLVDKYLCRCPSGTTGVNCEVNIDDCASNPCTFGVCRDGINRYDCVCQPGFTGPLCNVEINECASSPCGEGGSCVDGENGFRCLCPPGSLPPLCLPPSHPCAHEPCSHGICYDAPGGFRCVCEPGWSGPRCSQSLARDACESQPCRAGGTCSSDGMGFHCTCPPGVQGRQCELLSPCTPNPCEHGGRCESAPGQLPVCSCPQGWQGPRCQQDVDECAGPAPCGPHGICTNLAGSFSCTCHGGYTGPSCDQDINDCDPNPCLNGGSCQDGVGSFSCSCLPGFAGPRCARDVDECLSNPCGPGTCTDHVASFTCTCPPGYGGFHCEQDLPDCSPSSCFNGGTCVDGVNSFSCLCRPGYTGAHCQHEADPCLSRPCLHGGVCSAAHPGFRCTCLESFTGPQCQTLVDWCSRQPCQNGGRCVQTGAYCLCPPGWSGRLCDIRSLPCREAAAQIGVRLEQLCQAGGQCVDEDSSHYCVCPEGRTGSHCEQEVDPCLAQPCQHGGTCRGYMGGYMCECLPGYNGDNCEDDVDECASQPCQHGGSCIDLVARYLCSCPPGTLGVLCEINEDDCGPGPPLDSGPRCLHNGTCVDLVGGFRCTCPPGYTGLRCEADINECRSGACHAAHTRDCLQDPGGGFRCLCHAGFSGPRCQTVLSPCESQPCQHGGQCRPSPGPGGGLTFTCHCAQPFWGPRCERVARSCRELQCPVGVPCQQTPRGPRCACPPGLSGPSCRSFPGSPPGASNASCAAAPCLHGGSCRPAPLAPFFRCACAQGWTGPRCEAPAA

[5] = molecular target: Notch3-EGF/Fc fusion protein (human) (UniProt Q9UM47); assay: ELISA, hybridoma supernatant on coated Notch3-EGF/Fc (0.1 ug/ml); control beside 255A-77
[6] = molecular target: T1, Notch3-LD/Fc fusion protein; assay: Western blot, denaturing conditions
Description: Western blot was performed to assess anti-Notch3 mAbs binding activity to Notch3 under denaturing condition. For this purpose, purified Notch3-EGF/Fc and Notch3-LD/Fc fusion proteins were combined with protein loading buffer (BioRad, Hercules, Calif.). Protein samples were also prepared from the transiently or stably transfected cells described in Example 1, which were harvested from culture dishes, washed once with phosphate buffered saline (PBS), resuspended in deionized water, and heated at 100° C. for 10 minutes after adding equal volume of 2× protein sample loading buffer (BioRad, Hercules, Calif.). All samples were separated by electrophoresis in a 4-15% gradient SDS-PAGE (BioRad, Hercules, Calif.). The proteins were transferred from gel to PVDF membrane (BioRad, Hercules, Calif.) and anti-Notch3 mAbs were applied to the Western blot membrane as the primary detection antibody. An HRP-conjugated secondary antibody was used for detection and the signal generated using a Supersignal Chemiluminescent Substrate (Pierce, Rockford, Ill.) as described above.

Notch3-LDTM/V5 = molecular target: T2, Notch3-LDTM/V5 (human, UniProt Q9UM47 1378-1664, limits assumed); assay: cell-based FMAT assay on cells expressing Notch3-LDTM
T2 construct: not shown: V5 tag at the C-terminus
T2 sequence: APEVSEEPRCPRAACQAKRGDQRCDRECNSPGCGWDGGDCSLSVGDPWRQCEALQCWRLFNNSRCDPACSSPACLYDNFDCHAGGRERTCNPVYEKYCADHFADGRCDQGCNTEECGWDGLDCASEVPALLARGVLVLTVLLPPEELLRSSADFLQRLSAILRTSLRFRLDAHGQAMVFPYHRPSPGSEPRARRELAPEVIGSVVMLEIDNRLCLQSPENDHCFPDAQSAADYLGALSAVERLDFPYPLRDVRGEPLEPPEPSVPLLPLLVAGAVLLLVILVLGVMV
Description: Cell-based antibody-binding was assessed using FMAT™ 8100 HTS System (Applied Biosystems, Foster City, Calif.) and protocol provided by the manufacturer with some modification. Cell lines expressing Notch3 were seeded in 96-well plates at a density of 30,000-50,000 cells per well. After 20-24 hours, anti-Notch3 mAbs and 1×PBS reaction buffer were added to the wells and incubated for one hour at 37° C. Cy-5-conjugated anti-mouse IgG antibody was added to the wells after removal of primary antibodies. The fluorescent intensity of bound antibody was measured by FMAT™ 8100 HTS System.

Chain of human Notch3 (full-length) (human) (Q9UM47 40-2321 A2223V limits assumed): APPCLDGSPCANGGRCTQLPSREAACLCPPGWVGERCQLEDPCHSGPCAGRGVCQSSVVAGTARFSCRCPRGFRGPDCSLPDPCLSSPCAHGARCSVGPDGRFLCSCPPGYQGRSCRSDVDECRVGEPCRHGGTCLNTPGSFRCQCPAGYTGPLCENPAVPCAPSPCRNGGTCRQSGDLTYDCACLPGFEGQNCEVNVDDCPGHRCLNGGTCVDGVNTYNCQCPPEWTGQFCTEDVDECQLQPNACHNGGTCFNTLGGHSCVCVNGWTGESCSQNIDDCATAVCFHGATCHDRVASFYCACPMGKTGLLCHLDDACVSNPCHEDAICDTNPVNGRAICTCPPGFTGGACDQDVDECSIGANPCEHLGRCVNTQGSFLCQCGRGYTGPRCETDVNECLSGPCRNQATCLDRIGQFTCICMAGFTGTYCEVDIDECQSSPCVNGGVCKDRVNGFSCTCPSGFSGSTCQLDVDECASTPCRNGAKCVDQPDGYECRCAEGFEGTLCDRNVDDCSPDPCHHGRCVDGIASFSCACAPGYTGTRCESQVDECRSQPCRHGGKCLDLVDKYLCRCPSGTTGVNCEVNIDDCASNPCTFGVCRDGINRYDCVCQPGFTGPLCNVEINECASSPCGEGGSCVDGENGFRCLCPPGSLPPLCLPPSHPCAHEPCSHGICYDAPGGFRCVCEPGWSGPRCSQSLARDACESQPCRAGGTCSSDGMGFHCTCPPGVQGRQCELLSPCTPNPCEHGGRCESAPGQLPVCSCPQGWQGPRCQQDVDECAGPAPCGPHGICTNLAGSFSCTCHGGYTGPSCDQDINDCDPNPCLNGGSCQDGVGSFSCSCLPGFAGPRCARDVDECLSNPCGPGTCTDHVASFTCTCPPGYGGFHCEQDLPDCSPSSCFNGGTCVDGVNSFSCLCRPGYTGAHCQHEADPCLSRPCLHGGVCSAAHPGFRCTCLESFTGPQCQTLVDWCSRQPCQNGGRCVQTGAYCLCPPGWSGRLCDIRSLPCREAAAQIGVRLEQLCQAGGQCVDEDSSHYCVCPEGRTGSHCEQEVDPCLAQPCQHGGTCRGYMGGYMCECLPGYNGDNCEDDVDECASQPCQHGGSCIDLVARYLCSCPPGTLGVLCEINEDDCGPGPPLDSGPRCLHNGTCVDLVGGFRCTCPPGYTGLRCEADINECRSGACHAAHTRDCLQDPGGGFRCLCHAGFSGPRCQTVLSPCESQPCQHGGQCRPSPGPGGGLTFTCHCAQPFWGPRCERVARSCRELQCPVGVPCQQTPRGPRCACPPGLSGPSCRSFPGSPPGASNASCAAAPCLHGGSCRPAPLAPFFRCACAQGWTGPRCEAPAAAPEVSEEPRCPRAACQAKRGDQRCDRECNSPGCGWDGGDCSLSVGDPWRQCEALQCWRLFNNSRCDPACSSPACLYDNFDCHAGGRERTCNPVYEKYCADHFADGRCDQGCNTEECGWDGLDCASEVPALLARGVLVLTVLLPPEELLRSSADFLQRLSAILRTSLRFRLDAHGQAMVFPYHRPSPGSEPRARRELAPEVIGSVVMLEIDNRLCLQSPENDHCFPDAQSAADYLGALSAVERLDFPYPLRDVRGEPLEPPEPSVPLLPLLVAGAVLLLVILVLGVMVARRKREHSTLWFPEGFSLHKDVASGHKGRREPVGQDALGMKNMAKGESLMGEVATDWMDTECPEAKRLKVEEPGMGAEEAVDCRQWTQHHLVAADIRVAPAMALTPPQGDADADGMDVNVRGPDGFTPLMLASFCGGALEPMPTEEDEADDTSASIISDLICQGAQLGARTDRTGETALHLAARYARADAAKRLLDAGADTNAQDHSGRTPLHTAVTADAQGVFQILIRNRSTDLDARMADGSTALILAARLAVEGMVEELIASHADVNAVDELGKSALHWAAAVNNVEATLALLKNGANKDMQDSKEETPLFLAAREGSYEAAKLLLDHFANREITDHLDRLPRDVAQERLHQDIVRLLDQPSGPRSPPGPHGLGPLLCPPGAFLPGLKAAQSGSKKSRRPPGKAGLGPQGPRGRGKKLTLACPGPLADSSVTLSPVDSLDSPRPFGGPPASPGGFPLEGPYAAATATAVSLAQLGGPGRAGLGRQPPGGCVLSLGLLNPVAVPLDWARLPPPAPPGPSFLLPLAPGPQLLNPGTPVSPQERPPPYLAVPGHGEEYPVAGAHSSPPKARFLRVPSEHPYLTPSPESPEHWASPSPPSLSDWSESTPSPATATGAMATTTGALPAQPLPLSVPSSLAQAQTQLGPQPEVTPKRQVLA

mean fluorescence intensity [1]: 24.5 MFI
mean fluorescence intensity [2]: 24.2 MFI
Molecule: Control IgG1 (antibody)

ELISA OD at 450 nm (mean) [3]: 0.019 OD
ELISA OD at 450 nm (mean) [4]: 0.01 OD
ELISA OD at 450 nm (mean) [5]: 0.019 OD
Molecule: Control hybridoma supernatant (antibody)

Second part, the molecule before the results:

B1: anti-Notch 3 monoclonal antibody mAb 255A-77 (antibody, V domains shown)
VH: QVQLQQSGDDLVKPGASVKLSCKASGYTFTSYWINWIKQRPGQGLEWIGHIGPGSGSTYYNEIFKGKATLTVDTSSSTAYIQLSSLSSEDSAVYFCVLTRYFYAMDYWGQGTSVTVSS
VL: DIVMTQSPSSLAVTAGEKVTMRCKSSQSLLWSVNQNNYLSWYQQKQGQPPKLLIYGASIRESWVPDRFTGSGSGTDFTLTISNVHVEDLAVYYCQHNHGSFLPLTFGAGTKLELKR
notes: Mouse hybridoma mAb raised against Notch3-EGF/Fc
binding result [6]: no binding
binding result (Notch3-LDTM/V5): no binding

B2: anti-Notch 3 monoclonal antibody mAb 255A-71 (antibody, V domains shown)
VH: DVQLQESGPGLVKPSQSLSLTCSVTGYSITSGYYWNWIRQFPGNKLEWMGFISYDGSNNYNPSLKNRISITRDTSKNQFFLKLNSVTTEDTATFYCATLYYDYDGNYFDYWGQGTTLTVSS
VL: CDIQMTQTTSSLSASLGDRVTISCRTSQDISNYLNWYQQKPDGTVKLLIYYTSRLHSGVPSRFSGSGSGTDYSLTISNLEQEDIATYFCQQGNALPLTFGPGTKLELKR
notes: as for B1
binding result [6]: no binding
binding result (Notch3-LDTM/V5): no binding
